Ends that are not written are not given here.
Molecular target: fraction V human serum albumin (human, UniProt P02768 25-609)
Assay: cell-based or functional assay

Sequence of fraction V human serum albumin (P02768 25-609 limits assumed): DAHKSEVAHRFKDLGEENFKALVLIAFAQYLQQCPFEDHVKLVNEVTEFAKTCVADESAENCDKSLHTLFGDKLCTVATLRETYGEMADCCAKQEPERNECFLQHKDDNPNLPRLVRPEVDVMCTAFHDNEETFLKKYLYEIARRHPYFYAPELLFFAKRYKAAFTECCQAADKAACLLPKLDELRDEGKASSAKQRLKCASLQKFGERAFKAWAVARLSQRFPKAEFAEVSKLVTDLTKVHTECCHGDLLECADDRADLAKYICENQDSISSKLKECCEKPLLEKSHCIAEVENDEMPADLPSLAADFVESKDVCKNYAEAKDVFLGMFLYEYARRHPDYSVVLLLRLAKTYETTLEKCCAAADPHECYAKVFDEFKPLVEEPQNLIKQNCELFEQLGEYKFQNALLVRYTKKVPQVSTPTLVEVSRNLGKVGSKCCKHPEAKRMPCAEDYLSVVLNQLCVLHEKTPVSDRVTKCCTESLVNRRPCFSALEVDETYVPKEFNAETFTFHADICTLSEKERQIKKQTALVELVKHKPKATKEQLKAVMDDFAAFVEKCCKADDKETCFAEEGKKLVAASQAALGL

fold decrease in potency shift in 4% vs 0.1% albumin (cAMP accumulation in hGLP1R-expressing CHO-K1 cells) | reduction in potency in 4% vs 0.1% albumin, relative to the effect observed with GLP-1[7-36]NH2 | albumin-mediated change in potency for activation of GLP-1 receptors at 4% HSA versus 0.1% HSA | potency shift in 4% vs 0.1% albumin (cAMP accumulation in hGLP1R-expressing CHO-K1 cells) | Binder
19.9 fold | 36.8 fold |  |  | HXEGTFTSDVSSYLEGQAAKEFIAWLVRGRG (Aib in position 8 (GLP-1 numbering); Lys carries N6-[N-(17-carboxy-1-oxoheptadecyl-L-c-glutamyl[2-(2-aminoethoxy)ethoxy]acetyl[2-(2-aminoethoxy)ethoxy]acetyl] residue (as printed in paragraph 217))) [semaglutide]
 |  | 0.54 fold (×) | 1.8 fold | HAEGTFTSDVSSYLEGQAAKEFIAWLVKGR-NH2 [human GLP-1[7-36]NH2]

From patent publication US20200188479A1 (INTARCIA THERAPEUTICS, published 2020)
